Source: PMC10752582 (eLife, 2023)

B1: BRAF-CRD only protein NT5 (residues 234-288) (domain or fragment, UniProt P15056 234-288, looked up)
chain: THNFVRKTFFTLAFCDFCRKLLFQGFRCQTCGYKFHQRCSTEVPLMCVNYDQLDL
notes: BRAF residues 234-288 (CRD only); also called BRAF NT5; source: E. coli BL21 codon +, purified
B2: 6xHis-BRAF kinase domain, wild type (amino acids 442-723 with 16 solubilizing mutations) (domain or fragment, UniProt P15056 442-723, looked up)
chain: GRRDSSDDWEIPDGQITVGQRIGSGSFGTVYKGKWHGDVAVKMLNVTAPTPQQLQAFKNEVGVLRKTRHVNILLFMGYSTKPQLAIVTQWCEGSSLYHHLHASETKFEMKKLIDIARQTARGMDYLHAKSIIHRDLKSNNIFLHEDNTVKIGDFGLATVKSRWSGSHQFEQLSGSILWMAPEVIRMQDSNPYSFQSDVYAFGIVLYELMTGQLPYSNINNRDQIIEMVGRGSLSPDLSKVRSNCPKRMKRLMAECLKKKRDERPSFPRILAEIEELARELSG
modifications: biotin (Sulfo-NHS-biotin, 50 molar excess) in the pull-downs on streptavidin beads
notes: BRAF kinase domain, amino acids 442-723, with 16 solubilizing mutations; Designed as in Cope et al., 2020; Amine-coupled to a carboxyl sensor in OpenSPR, biotinylated in pull-downs; also called KD; BRAF-KD; source: E. coli BL21 codon +, purified (cobalt resin, SEC); not shown: 6xHis, N-terminal, kept

How the values were obtained:
Assay in all cases: SPR; OpenSPR; BRAF-KD WT or D594G amine-coupled to a carboxyl sensor (~6000 RUs), BRAF NTs flowed at 30 µL/min; 20 mM HEPES pH 7.4, 150 mM NaCl, 5% glycerol, 0.005% Tween-20, 1% BSA; 1:1 fit
Details in all cases: both partners purified
[1] = biological target: B2
[2] = biological target: T1, untagged BRAF NT1 (His/MBP-tag removed by TEV protease) (UniProt P15056 1-288)
T1 construct: BRAF residues 1-288 (BSR, RBD and CRD); also called untagged NT1; source: E. coli BL21 codon +, purified, tag cleaved with TEV protease; not shown: 6xHis, N-terminal, cleaved; MBP, N-terminal, cleaved

[3] = biological target: T2, His/MBP-BRAF NT1 (aa 1-288) (UniProt P15056 1-288)
T2 construct: BRAF residues 1-288 (BSR, RBD and CRD); Cloned in the pET28-MBP vector; also called His/MBP-NT1; source: E. coli BL21 codon +, purified (Ni-NTA, SEC); not shown: 6xHis, N-terminal, kept; MBP, N-terminal, kept

Binder	Kd [1] [nM]	Kd [2] [nM]	Kd [3] [nM]
B1	> 6000	–	–
B2	–	13	11
